Data published in paper PMC4691284 (Developmental cell, 2015).

B1: FCHSD2 F-BAR domain (domain or fragment, human, UniProt O94868 8-282, looked up)
chain: VKVTQELKNIQVEQMTKLQAKHQAECDLLEDMRTFSQKKAAIEREYAQGMQKLASQYLKRDWPGVKADDRNDYRSMYPVWKSFLEGTMQVAQSRMNICENYKNFISEPARTVRSLKEQQLKRCVDQLTKIQTELQETVKDLAKGKKKYFETEQMAHAVREKADIEAKSKLSLFQSRISLQKASVKLKARRSECNSKATHARNDYLLTLAAANAHQDRYYQTDLVNIMKALDGNVYDHLKDYLIAFSRTELETCQAVQNTFQFLLENSSKVVRDYN
B2: FCHSD1 F-BAR domain (domain or fragment, human, UniProt Q86WN1 12-282, looked up)
chain: QEVKLRFLEQLSILQTWQQREADLLEDIRSYSKQRAAIEREYGQALQKLAGPFLKREGHRSGEMDSRGRTVFGAWRCLLDATVAGGQTRLQASDRYRDLAGGTGRSAKEQVLRKGTENLQRAQAEVLQSVRELSRSRKLYGQRERVWALAQEKAADVQARLNRSDHGIFHSRTSLQKLSTKLSAQSAQYSQQLQAARNEYLLNLVATNAHLDHYYQEELPALLKALVSELSEHLRDPLTSLSHTELEAAEVILEHAHRGEQTTSQVSWEQD
B3: Gas7 F-BAR domain (domain or fragment, human, UniProt O60861 196-456, looked up)
chain: TEWSYCDYFWADKKDPQGNGTVAGFELLLQKQLKGKQMQKEMSEFIRERIKIEEDYAKNLAKLSQNSLASQEEGSLGEAWAQVKKSLADEAEVHLKFSAKLHSEVEKPLMNFRENFKKDMKKCDHHIADLRKQLASRYASVEKARKALTERQRDLEMKTQQLEIKLSNKTEEDIKKARRKSTQAGDDLMRCVDLYNQAQSKWFEEMVTTTLELERLEVERVEMIRQHLCQYTQLRHETDMFNQSTVEPVDQLLRKVDPAKD

Biological target: the molecule itself
Test: AUC

| Protein | stoichiometry N |
| --- | --- |
| B1 | > 2 dimers |
| B2 | > 2 dimers |
| B3 | > 2 dimers |
